# In publication PMC12014896 (2025):
# B1: COVIC-149 (antibody, V domains shown)
# VH: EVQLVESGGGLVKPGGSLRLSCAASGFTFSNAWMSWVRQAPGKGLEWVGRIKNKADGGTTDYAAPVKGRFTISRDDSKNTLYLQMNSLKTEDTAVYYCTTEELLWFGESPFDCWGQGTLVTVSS
# VL: DIQLTQSPSFLSASVGDRVTITCWASQGINSYLAWYQQKPGKAPKLLIYAASTLQSGVPSRFSGSGSGTEFTLTISSLQPEDFTTYYCQQFNDYPRTFGPGTKVEIKR
# B2: COVIC-160 (antibody, V domains shown)
# VH: EVQLVESGGGLIQPGGSLRLSCAASGVTVSSNYMSWVRQAPGKGLEWVSVIYSGGSTFYADSVKGRFTISRDNSKNTLYLQMNSLRAEDTAVYYCARDLSYYGMDVWGQGTTVTVSS
# VL: DIQLTQSPSFLSASVGDRVTITCWASQGISSYLAWYQQKPGKAPKLLIYAASTLQSGVPSKFSGSGSGTEFTLTISSLQPEDFATYYCQQLNSYPCSFGQGTKLEIKR
# B3: COVIC-93 (protein)
# chain: MSSSSWLLLSLVAVTAAQSTIEEQVKTFLDKFNHEAEDLFYQCSLASWNYNTNITEENVQNMNNACDKWSAFLCEQSTLAQMYPLQEIQDLTVKLQLQALQQNGSCVLSEDKSKRLNTILNTMSTIYCTGKVCNPDNPQECLLLEPGLNEIMANSLDYNERLWAWESWRSEVGKQLRPLYEEYVVLKNEMARANHYEDYGDYWRGDYEVNGVDGYDYSRGQLIEDVEHTFEEIKPLYEHLHAYVRAKLMNAYPSYISPTGPLPAHLLGDMWGRFWTNLYSLTVPFGQKPNIDVTDAMVDQAWDAQRIFKEAEKFFVSVGLPNMTQGFWENSMLTDPGNGQKVCCYPTAWDLGKGDFRILMCTKVTMDDFLTAHHEMGHIQYDMAYAAQPFLLRNGANEGFHEAVGEIMSLSAATPKHLKSIGLLSPDFQEDNETEINFLLKQALTIVGTLPFTYMLEKWRWMVFKGEIPKDQWMKKWWEMKREIVGVVEPVPHDETYMDPASLFHVSNDYSFIRYYTRTLYQFQFQEALCQAAKHEGPLHKCDISNSTEAGQKLFNMLRLGKSEPWTLALENVVGAKNMNVRPLLNYFEPLFTWLKDQNKNSFVGWSTDWSPYADQSIKVRISLKSALGDKAYEWNDNEMYLFRSSVAYAMRQYFLKVKNQMILFGEEDVRVANLKPRISFNFFVTAPKNVSDITPRTEVEKAIRMSRSRINDCFRLNDNSLEFLGIQPTLGPPNQPPVECPPCPAPPVAGPSVFLFPPKPKDTLMISRTPEVTCVVVDVSHEDPEVQFNWYVDGVEVHNAKTKPREEQFNSTFRVVSVLTVVHQDWLNGKEYKCKVSNKGLPAPIEKTISKTKGQPREPQVYTLPPSREEMTKNQVSLTCLVKGFYPSDISVEWESNGQPENNYKTTPPMLDSDGSFFLYSKLTVDKSRWQQGNVFSCSVLHEALHSHYTQKSLSLSPGK
# B4: COVIC-306 (antibody, V domains shown)
# VH: QVQLVESGGGLVKPGGSLRLSCAASGFTVGSNYMSWVRQAPGKGLEWVSVIYSGGSTYYADSVKGRFTISRDNSKNTLYLQMNSLRAEDTAVYYCARGSSGAWYFDLWGRGTLVTVSS
# VL: EIVMTQSPSSLSASVGDSVTITCQASQDISNYLNWYQQKPGKAPKLLIYDASNLETGVPSRFSGGGSGTDFTLTITSLQPEDIATYYCQQYDNFPPTFGPGTKVDIKR
# B5: COVIC-309 (antibody, V domains shown)
# VH: EVQLVESGGGLVQPGRSLRLSCAASGFTFDDYAMHWVRQAPGKGLEWVSGISWNSGSIGYADSVKGRFTISRDNAKNSLHLQMNSLRAEDTALYYCANLLTPPRRYSGYDLREDYFEYWGQGTLVTVSS
# VL: SSELTQDPAVSVALGQTVRITCQGDSLRSYYASWYQQKPGQAPVLVIYDRNNRPSGIPDRFSGSSSGNTASLTITGAQAEDEADYYCHSRDSSGNPLHVVFGGGTKLTVL
# B6: COVIC-367 (antibody, V domains shown)
# VH: EVQLVESGGGLVQPGRSLRLSCAASGFTFDDYAMHWVRQAPGKGLEWVSGVSWNSGTIGYADSVKGRFIISRDNAKNSLYLQMRSLRAEDTALYYCAKDVSVYRFREQSYGMDVWGQGTTVTVLS
# VL: QSALTQSASVSGSPGQSITISCTGTSSDIGGYNFVSWYQQHPGKAPKLMIYEVTTRPSGVSNRFSGSKSGNTASLTISGLQAEDEADYYCSSYTSSSLVVFGGGTKLALLG
# B7: COVIC-64 (antibody)
# chain: QVQLQESGGGLVQAGGSLRLSCAASGRTFSEYAMGWFRQAPGKEREFVATISWSGGSTYYTDSVKGRFTISRDNAKNTVYLQMNSLKPDDTAVYYCAAAGLGTVVSEWDYDYDYWGQGTQVTVSSGGSGGSQVQLQESGGGLVQAGGSLRLSCVASGSIFSINAMDWYRQAPGKQRELVAGITSGGSTNYGDFVKGRFTISRDNAKNTVYLQMDSLKPEDTAVYYCAAEVGGWGPPRPDYWGHGTQVTVSSGGGGSGGGGSKKKPLDGEYFTLQIRGRERFEMFRELNEALELKDAQAGKEPG
# B8: COVIC-129 (antibody)
# chain 1: QVQLQESGGGLVQAGGSLRLSCAASGRTFSEYAMGWFRQAPGKEREFVATISWSGGSTYYTDSVKGRFTISRDNAKNTVYLQMNSLKPDDTAVYYCAAAGLGTVVSEWDYDYDYWGQGTQVTVSSGGSGGSQVQLQESGGGLVQAGGSLRLSCAASGRTFSEYAMGWFRQAPGKEREFVATISWSGGSTYYTDSVKGRFTISRDNAKNTVYLQMNSLKPDDTAVYYCAAAGLGTVVSEWDYDYDYWGQGTQVTVSSGGGGSGGGGSASTKGPSVFPLAPSSKSTSGGTAALGCLVKDYFPEPVTVSWNSGALTSGVHTFPAVLQSSGLYSLSSVVTVPSSSLGTQTYICNVNHKPSNTKVDKKVEPKSCDKTHTCPPCPAPELLGGKKKPLDGEYFTLQIRGRERFEMFRELNEALELKDAQAGKEPG
# chain 2: QVQLQESGGGLVQAGGSLRLSCAASGRTFSEYAMGWFRQAPGKEREFVATISWSGGSTYYTDSVKGRFTISRDNAKNTVYLQMNSLKPDDTAVYYCAAAGLGTVVSEWDYDYDYWGQGTQVTVSSGGSGGSQVQLQESGGGLVQAGGSLRLSCAASGRTFSEYAMGWFRQAPGKEREFVATISWSGGSTYYTDSVKGRFTISRDNAKNTVYLQMNSLKPDDTAVYYCAAAGLGTVVSEWDYDYDYWGQGTQVTVSSGGGGSGGGGSKRTVAAPSVFIFPPSDEQLKSGTASVVCLLNNFYPREAKVQWKVDNALQSGNSQESVTEQDSKDSTYSLSSTLTLSKADYEKHKVYACEVTHQGLSSPVTKSFNRGEC
# B9: COVIC-311 (antibody)
# chain 1: QVQLVESGGGVVQSGRSLRLSCAASGFTFSSYAMHWVRQAPGKGLEWVAVISHDGSNTYYEDSVKGRFTISRDNSKNTLHLQVNSLRVEDTAVYYCARAKGEVRYFDWAEQGGDYWGQGTLVTVSSGGGGSGGGGSGGGGQVQLVQSGAEVKKPGSSVKVSCKASGGTFGISWVRQAPGQGLEWMGRIIPILGTANHAQKFQGRVTITADKSTGTVYMELSSLRSEDTAVYYCARDGDSGSYYETLGFDYWGQGTLVTVSS
# chain 2: SYELTQPPSVSVSPGQTARITCSGDALPKKYAYWYQQKSGQAPVLVIYEDSKRPSGIPERFSGSSSGTMATLTISGAQVEDEADYYCYSTDNSGDHGVFGGGTKLTVLGGGGSGGGGSGGGGQSALTQPPSASGSPGQSVTISCTGTSSDVGGYNYVSWYQQHPGKAPKLMIYEVNKRPSGVPDRFSGSKSGNTASLTVSGLQAEDEADYYCSSYAGSNNLVFGGGTKLTVL
# B10: COVIC-140 (antibody, V domains shown)
# VH: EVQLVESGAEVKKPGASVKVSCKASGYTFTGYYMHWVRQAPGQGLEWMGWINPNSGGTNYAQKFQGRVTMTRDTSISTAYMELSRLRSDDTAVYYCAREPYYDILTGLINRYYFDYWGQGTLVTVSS
# VL: QSALTQPASVSGSPGQSITISCTGTSSDVGGYNFVSWYQQHPGKAPKLMIYEVSNRPSGVSNRFSGSKSGNTASLTISGLQAEDEADYYCSSYTSSSTRVFGGGTKLTVL
# B11: COVIC-164 (antibody, V domains shown)
# VH: EVQLVESGGGLIQPGGSLRLSCAAAGLTVSSNYMNWVRQVPGKGLEWVSVIYSGGSTYYADSVKGRFTISRDNSKNTLYLQMNSLRAEDTAVYYCARDLGTLGMDVWGQGTTVTVSS
# VL: DIQLTQSPSFLSASVGDRVTITCWASQGISTYLAWYQQKPGKAPKLLIYAASTLQSGVPSRFSGSGSGTEFTLTISSLQPEDFATYYCQQLNSYLPTFGQGTKVEIKR
# Biological target: SARS-CoV-2 spike RBD (Wuhan-Hu-1) (Severe acute respiratory syndrome …, UniProt P0DTC2)
# Assay: SPR
row,Binder,Kd [nM]
1,B1,22.3
2,B2,14.7
3,B3,0.431
4,B4,26.3
5,B5,104
6,B6,0.0301
7,B7,169
8,B8,135
9,B9,3.03
10,B10,190
11,B11,2.25
